B1: 97 (protein, listed as Sphingobium sp.)
chain: MAMMIIDCHGHYTVLPKAHDEWREQQKAAFKAGQPAPPYPEISDDEIRETIEANQLRLIKERGADMTIFSPRASAMAPHVGDQSVAVPWAQACNNLIARVVDLFPETFAGVCMLPQSPEADMTSSIAELERCVNELGFIGCNLNPDPGGGHFKHPPLTDRFWYPFYEKMVELDVPAMIHVSGSCNPAMHATGAYYLAADTIAFMQLLQGNLFADFPTLRFIIPHGGGAVPYHWGRFRGLADMLKQPSLDTLLMNNVFFDTCVYHQPGINLLADVIDNKNILFGSEMVGAVRGIDPTTGHYFDDTKRYIDALDISDQERHAIFEGNTRRVFPRLDAKLKARGL
B2: 98 (protein)
chain: MAIIDCHGHYTTAPAAHDAFRKAQIAHHDDPQQPAPQYPHISDDALRESIEQHQLRLLRERGADMTIFSPRASTMAHHIGNEAVSQVWTQRCNDLIARVVQLYPHTFIGVCQLPQSPGVPISHSIAELERCVNELGFVGCNLNPDPSGGHWNGVPLTDRAWYPFFEKMVELDVPAMVHVSGSCNANFHATGAHYLNADTTAFMQFLEGDLFRDFPSLRFIIPHGGGAVPYHWGRFRGLADMLGKPPLATHVMRNVFFDTCVYHQPGIDLLFEVIDIDNILFGSEMVGAVRGIDPQTGHYFDDTKRYIDALTISDADKRKVFEGNARRVYPRLDAQLRARGL
modifications: Xanthomonas campestris pv.
B3: 99 (protein, listed as Ralstonia solanacearum)
chain: MAIIDCHGHFTTAPTALEDWRKRQIANLATPALGPSPDDLKISDDALTEAIRANQLRLMQARGSDLTIFSPRASFMAHHIGDFHTSATWAAICNALCHRVSQLFPDHFVGAAMLPQSPGVDIRTCIPELARCIVDYGFVGVNLNPDPSGGHWTSPPLSDPYWFPLYEKLVEYDVPAMIHVSTSCNACFHTTGAHYLNADTTAFMQVLTSDLFRRFPTLKFVIPHGGGAVPYHWGRFRGLAQELKTPPLQEHLLHNVFFDTCVYHQPGIDLLTRVIPVDNILFASEMIGAVRGIDPETGHPFDDTRRYIDQAHTLSAEDRHKIYEGNARRVYPRLDARLKARGR
B4: 101 (protein, listed as Aquifex aeolicus)
chain: MAQKIALCITGASGVIYGIKLLQVLEELDFSVDLVISRNAKVVLKEEHSLTFEEVLKGLKNVRIHEENDFTSPLASGSRLVHYRGVYVVPCSTNTLSCIANGINKNLIHRVGEVALKERVPLVLLVREAPYNEIHLENMLKITRMGGVVVPASPAFYHKPQSIDDMINFVVGKLLDVLRIEHNLYKRWRG
B5: 8 (protein, listed as Metarhizium anisopliae)
chain: MARGKINFEEAFELPTLADSSREQAALYIAPKDLDRYIYHIKHPLGERLQLANSHGIGYTIYSLTVPGIQGIPDQSKAEQHATTVNDWIANEIKDHRDRLGAFAALSMHDAAQAAAELERCVRQHGFHGALLNNYQHAGPDGETYLFYDQPAYDVFWQKCVELDVPVYLHPAAPAGNYYKQMYAQRKYLVGPPLSFANDVSLHLLGLVTNGVFDRFPKLKVVVGHLGEHIPFDFWRISHWLEDVERPLAAGRGDVMSKKDLLYYFKNNIWVTTSGHFSTPTVRYVADYLGPERIMFSVDTPYETIENGVGWFDGEEDALTRALGGEDGYKKVARENAKKLFKLTKYHDCDA
B6: 102 (protein, listed as Lactobacillus plantarum)
chain: MATKTFKTLDDFLGTHFIYTYDNGWEYEWYAKNDHTVDYRIHGGMVAGRWVTDQKADIVMLTEGIYKISWTEPTGTDVALDFMPNEKKLHGTIFFPKWVEEHPEITVTYQNEHIDLMEQSREKYATYPKLVVPEFANITYMGDAGQNNEDVISEAPYKEMPNDIRNGKYFDQNYHRLNK

Assay: 14C assay with IPTG-induced recombinant E. coli cells (14CO2 capture from [14C]-carboxyl-labeled dicamba)
Details: IPTG-induced recombinant E. coli cells; [14C]-carboxyl-labeled dicamba; 14CO2 capture

Molecule	Dicamba Decarboxylase Activity
B1	No
B2	No
B3	No
B4	No
B5	Low
B6	No

Same assay, conditions: dicamba decarboxylation activity of the protein of the given SEQ ID NO

Molecule	Enzymatic Detection level
B1	No
B2	No
B3	No
B4	No
B5	Low
B6	No

— patent US20140287419A1, “Compositions Having Dicamba Decarboxylase Activity and Methods of Use” (priority 2013, published 2014)
